From patent publication US20260176365A1 (SYNTHEKINE, published 2026)

T1: hGP130-his (Sino Biological, Catalog# 10974) (human, UniProt P40189 23-619)
T1 construct: Bought reagent; also called extracellular domain of gp130; not shown: C-terminal poly-His tag
T1 sequence: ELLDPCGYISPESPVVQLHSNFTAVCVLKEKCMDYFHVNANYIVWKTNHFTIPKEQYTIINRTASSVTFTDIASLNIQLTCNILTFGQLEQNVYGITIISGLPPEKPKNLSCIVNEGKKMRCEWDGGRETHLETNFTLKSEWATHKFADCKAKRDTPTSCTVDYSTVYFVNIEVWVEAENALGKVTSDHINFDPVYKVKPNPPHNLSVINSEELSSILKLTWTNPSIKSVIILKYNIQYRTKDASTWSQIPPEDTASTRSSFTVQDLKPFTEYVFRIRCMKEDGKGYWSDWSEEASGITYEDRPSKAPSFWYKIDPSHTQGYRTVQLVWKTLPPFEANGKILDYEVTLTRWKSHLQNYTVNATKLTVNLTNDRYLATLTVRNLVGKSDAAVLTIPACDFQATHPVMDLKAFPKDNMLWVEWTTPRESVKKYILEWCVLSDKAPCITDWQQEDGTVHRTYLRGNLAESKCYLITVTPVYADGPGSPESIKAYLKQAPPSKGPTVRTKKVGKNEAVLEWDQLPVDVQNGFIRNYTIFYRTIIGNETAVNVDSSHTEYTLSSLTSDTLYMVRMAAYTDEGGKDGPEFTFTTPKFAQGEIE

T2: mgp130 ECD antigen (mouse, UniProt Q00560 23-617)
T2 construct: Antigen of biopanning and PE-ELISA; The immunogen was an ECD-human IgG1 hinge-Fc fusion; also called ECD of mouse gp130; ngp130 ECD antigen (so in the source)
T2 sequence: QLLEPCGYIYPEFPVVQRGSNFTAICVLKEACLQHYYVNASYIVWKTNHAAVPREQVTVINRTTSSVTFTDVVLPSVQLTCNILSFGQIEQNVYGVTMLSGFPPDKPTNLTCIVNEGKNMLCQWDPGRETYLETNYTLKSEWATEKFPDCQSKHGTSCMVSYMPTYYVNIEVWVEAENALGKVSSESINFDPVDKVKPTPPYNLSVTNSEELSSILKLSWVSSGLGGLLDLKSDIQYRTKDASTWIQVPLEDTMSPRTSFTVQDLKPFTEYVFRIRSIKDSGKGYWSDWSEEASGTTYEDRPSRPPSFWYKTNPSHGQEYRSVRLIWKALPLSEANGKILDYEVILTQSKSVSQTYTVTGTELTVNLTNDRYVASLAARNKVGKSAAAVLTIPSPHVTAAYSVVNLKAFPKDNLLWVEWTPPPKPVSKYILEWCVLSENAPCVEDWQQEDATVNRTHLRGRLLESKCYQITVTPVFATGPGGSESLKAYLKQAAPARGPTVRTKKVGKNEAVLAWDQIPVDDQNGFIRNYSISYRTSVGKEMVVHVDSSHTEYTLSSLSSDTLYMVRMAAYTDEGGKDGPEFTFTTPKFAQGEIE

B1: mgp130_VHH13 Mono-Fc VHH (Fc fusion, not shown: a dimerising Fc or GST)
chain: QVQLQESGGGSVQPGGSLRLSCAASGFTFSTYDMSWVRQAPGKGLEWVSTINYSGSSTYYVDSVLGRFTIARDNAKNTLYLQMNNLQTEDTAVYYCASVKERRSNGHPIVFGDRGQGTQVTVSS
B2: mgp130_VHH5 Mono-Fc VHH (Fc fusion, not shown: a dimerising Fc or GST)
chain: QVQLQESGGGSVQAGGSLRLSCVISGFTYRQTFMGWFRQVVGKEREGVAAISTGGGSTIYADSVKGRFTISQDSSKDTVYLEMNGLKLEDTGMYYCAASTVITSESINRNLYQYWGQGTQVTVSS
B3: mgp130_VHH16 Mono-Fc VHH (Fc fusion, not shown: a dimerising Fc or GST)
chain: QVQLQESGGGLVQPGGSLRLSCAASGFTFRNYAMSWVRQAPGKGLEWVSAINSGGGSTYYADSVKGRFTISRDNAKNTLYLQMNSLKPEDTAMYYCAKHVTGDYDPSLRYEYNYWSQGTQVTVSS
B4: mgp130_VHH6 Mono-Fc VHH (Fc fusion, not shown: a dimerising Fc or GST)
chain: QVQLQESGGGLVQPGGSLRLSCAASGFTLSTYWMYWVRQAPGKGPEWVSAVSRGGFNTYYADSVKGRFTISRDNAKNTVYLQMNSLKPEDTAVYYCMSSVSFYGWPPDRVPSPTGQGTQVTVSS
B5: mgp130_VHH44 Mono-Fc VHH (Fc fusion, not shown: a dimerising Fc or GST)
chain: QVQLQESGGGLVQPGGSLRLSCTASGFTFNSAHLKWERQPPGKGLEWVSFITNGGASTGYADSVKGRFTISRDDAKNTLYLQMNNLKTEDTAVYYCATGGLRGQGTQVTVSS
B6: mgp130_VHH48 Mono-Fc VHH (Fc fusion, not shown: a dimerising Fc or GST)
chain: QVQLQESGGALVQPGGSLRLSCAASGFTFSYYAMKWVRQAPGKGLEWVSSISGGGGATYYADSVKGRFTISRDNTNDTLYLQMNSLKTEDTAVYYCAAQNLDYRGQGTQVTVSS
B7: DR591 Mono-Fc VHH (Fc fusion)
chain: QVQLQESGGGSVQAGGSLRLSCTASGAIASGYIDSRWCMAWFRQAPGKEREGVAAIWPGGGLTVYADSVKGRFTISRDHAKNTLYLQMNNLKPEDTAMYYCAAGSPRMCPSLEFGFDYWGQGTQVTVSS
notes: Mono-Fc format is not described further; also called anti-hGP130 Mono-Fc VHH; not shown: Fc part of the Mono-Fc format
B8: DR596 Mono-Fc VHH (Fc fusion)
chain: QVQLQESGGGLVQPGGSLRLSCTASGLTFDDSVMGWFRQAPGKGREAVSCISSSGANAFYADSVKGRFTISRDNAKNTLYLQMNSLKPEDTATYYCKRGHACAGYYPIPYDDYWGQGTQVTVSS
notes: as for B7
B9: DR595 Mono-Fc VHH (Fc fusion)
chain: QVQLQESGGGSVQAGGSLTLSCAASEYAYSTCNMGWYRQAPGKERELVSAFISDGSTYYADSVKGRFTITRDNAKNTVYLQMNSLKPEDTAIYYCSANCYRRLRNYWGQGTQVTVSS
notes: as for B7
B10: DR593 Mono-Fc VHH (Fc fusion)
chain: QVQLQESGGGSVQAGGSLRLSCAASGYPYSNGYMGWFRQAPGKEREGVATIYTGDGRTYYADSVKGRFTISRDNAKNTVDLQMSSLKPEDTAMYYCAARAAPLYSSGSPLTRARYNVWGQGTQVTVSS
notes: as for B7
B11: DR594 Mono-Fc VHH (Fc fusion)
chain: QVQLQESGGGSVQAGGSLRLSCVASASTYCTYDMHWYRQAPGKGREFVSAIDSDGTTRYADSVKGRFTISQGTAKNTVYLQMNSLQPEDTAMYYCKTVCVVGSRWSDYWGQGTQVTVSS
notes: as for B7
B12: DR592 Mono-Fc VHH (Fc fusion)
chain: QVQLQESGGGSVQAGGSLRLSCTAPGFTSNSCGMDWYRQAPGKEREFVSSISTDGTTGYADSVKGRFTISKDKAKDTVYLQMNSLKPEDTGMYSCKTKDGTIATMELCDFGYWGQGTQVTVSS
notes: as for B7
B13: mgp130_VHH13 (VHH)
VHH: QVQLQESGGGSVQPGGSLRLSCAASGFTFSTYDMSWVRQAPGKGLEWVSTINYSGSSTYYVDSVLGRFTIARDNAKNTLYLQMNNLQTEDTAVYYCASVKERRSNGHPIVFGDRGQGTQVTVSS
notes: As periplasmic extract of the phage clone; also called anti-mouse gp130 VHH; not shown: HA/His tag of the pMECS phagemid
B14: mgp130_VHH6 (VHH)
VHH: QVQLQESGGGLVQPGGSLRLSCAASGFTLSTYWMYWVRQAPGKGPEWVSAVSRGGFNTYYADSVKGRFTISRDNAKNTVYLQMNSLKPEDTAVYYCMSSVSFYGWPPDRVPSPTGQGTQVTVSS
notes: as for B13

Target: hGP130-his (Sino Biological, Catalog# 10974) (human) (UniProt P40189)
Experiment: SPR (Biacore T200), Mono-Fc VHH captured on Protein A chip, hGP130-his in solution, 1:1 fit

Point of comparison: B5, Kd 6 nM. Against it:
- B1 — 5.9-fold higher, 35.6 nM
- B2 — 15-fold higher, 90 nM
- B3 — 2.9-fold higher, 17.4 nM
- B4 — 38-fold higher, 229 nM
- B6 — 7-fold higher, 42 nM

Point of comparison: B1, koff 0.0037 s⁻¹. Against it:
- B2 — 2.2-fold higher, 0.0081 s⁻¹
- B3 — 10-fold lower, 0.00036 s⁻¹
- B4 — 8.1-fold higher, 0.03 s⁻¹
- B5 — 3.1-fold lower, 0.0012 s⁻¹
- B6 — 2.1-fold lower, 0.0018 s⁻¹

Point of comparison: B5, kon 200000 M⁻¹ s⁻¹. Against it:
- B1 — 1.8-fold lower, 110000 M⁻¹ s⁻¹
- B2 — 2.2-fold lower, 90000 M⁻¹ s⁻¹
- B3 — 9.5-fold lower, 21000 M⁻¹ s⁻¹
- B4 — 1.5-fold lower, 130000 M⁻¹ s⁻¹
- B6 — 4.7-fold lower, 43000 M⁻¹ s⁻¹

Target: T1, hGP130-his (Sino Biological, Catalog# …)
Experiment: as above
Description: A representative example from each hgp130 VHH and mgp130 VHH clonotype generated in accordance with Examples 1-3 was selected for evaluation of binding via SPR as follows. […] All experiments were conducted in 10 mM Hepes, 150 mM NaCl, 0.05% (v/v) Polysorbate 20 (PS20) and 3 mM EDTA (HBS-EP+ buffer) on a Biacore T200 instrument equipped with a Protein A derivatized sensor chip (Cytiva). Mono-Fc VHH ligands were flowed at 5 μl/min for variable time ranging from 18 to 300 seconds, reaching the capture loads listed in the tables below. Following ligand capture, […], typically comprising at least five concentrations between 1 μM and 1 nM, were performed in either high performance or single cycle kinetics mode. Surface regeneration was achieved by flowing 10 mM glycine-HCl, pH 1.5 (60 seconds, 50 μL/min). Buffer-subtracted sensograms were processed with Biacore T200 Evaluation Software and globally fit with a 1:1 Langmuir binding model (bulk shift set to zero) to extract kinetics and affinity constants (kₐ, kd, KD). RMAX<100 RU indicates surface density compatible with kinetics analysis. Calculated Rₘₐₓ values were generated using the equation: Rₘₐₓ=Load (RU)×valency of ligand×(Molecular weight of analyte/Molecular weight of ligand). Surface activity was defined as the ratio of experimental/calculated Rmax.

Point of comparison: B9, Kd 41 nM. Against it:
- B7 — within 1.5-fold, 33 nM
- B8 — within 1.5-fold, 44 nM
- B10 — 2-fold higher, 82 nM
- B11 — within 1.5-fold, 58 nM
- B12 — within 1.5-fold, 38 nM

Point of comparison: B8, koff 0.0082 s⁻¹. Against it:
- B7 — 4.3-fold lower, 0.0019 s⁻¹
- B9 — within 1.5-fold, 0.0073 s⁻¹
- B10 — 2.6-fold higher, 0.021 s⁻¹
- B11 — within 1.5-fold, 0.0095 s⁻¹
- B12 — within 1.5-fold, 0.0059 s⁻¹

Point of comparison: B12, kon 160000 M⁻¹ s⁻¹. Against it:
- B7 — 2.7-fold lower, 59000 M⁻¹ s⁻¹
- B8 — within 1.5-fold, 190000 M⁻¹ s⁻¹
- B9 — within 1.5-fold, 180000 M⁻¹ s⁻¹
- B10 — 1.6-fold higher, 250000 M⁻¹ s⁻¹
- B11 — the same, 160000 M⁻¹ s⁻¹

Target: T2, mgp130 ECD antigen
Experiment: periplasmic extract ELISA (PE-ELISA) of phage clones

B13: binds.
B14: binds.
